# According to patent publication US20150079090A1 (JOSAI UNIVERSITY, published 2015):
# Ends that are not written are not given here.
# T1: conjugate of a peptide consisting of an amino acid sequence represented by SEQ ID NO:1 (SSVLYGGPPSAA) and KLH (also: conjugated to KLH with glutaraldehyde, site and number per carrier not given here)
# T1 construct: Synthetic peptide (Fmoc solid phase) cross-linked to KLH by glutaraldehyde; also called antigenic substance; antigen
# T1 peptide: SSVLYGGPPSAA
# B1: monoclonal antibody (SSVmAb) of Example 1, produced by hybridoma Mouse-Mouse hybridoma SSV-C 93-3 (NITE BP-972) (antibody, IgG1, V domains shown)
# VH: EIQLQQSGAELVKPGASVKISCKASGYSFTGYNMNWVKQSHGKSLEWIGNINPYYGSTSYNQKFKGKATLTVDKSSSTAYMQLNSLTSEDSAVYYCARSPYYSNYWRYFDYWGQGTTLTVSS
# VL: QIVLSQSPAILSASPGEKVTMTCRASSSVSYMHWYQQKPGSSPKPWIYATSNLASGVPARFSGSGSGTSYSLTISRVEAEDAATYYCQQWSSNPWTFGGGTKLEIK
# notes: Mouse hybridoma antibody
# Molecular target: T1, conjugate of a peptide consisting of an …
# Experiment: ELISA of hybridoma culture supernatant on plate coated with the peptide-KLH conjugate, fluorescence read-out
# Procedure: A buffer solution containing the above-mentioned antigenic substance (5 mg) (Baicarbonate buffer: 100 mM NaHCO₃—NaOH, pH 9.2 to 9.5, the concentration of the peptide: 1 μg/mL) was added to a 96 well flat bottom plate in an amount of 50 μL per well, and allowed to stand for coating at room temperature for 2 hours. The plate was washed 3 times with wash buffer (PBST), and then blocking buffer (3% skim milk 1% BSA, PBS) was added in an amount of 200 to 250 μL/well to react at 4° C. for one full day, and then washed 3 times. Then the culture supernatant of hybridoma was added in an amount of 100 μL/well, which was allowed to react at 37° C. for 4 hours or at 4° C. for one full day. After the plate was washed 3 times, biotin-labeled anti-mouse IgG (SIGMA) diluted 10000 times with dilution buffer (10 mM Tris-HCl (pH 8.0), 0.9% (W/V) NaCl, 0.05% (W/V) Tween 20) was added in an amount of 50 μL/well, which was allowed to react at room temperature for 2 hours. […] Then washing was performed 6 times, and fluorescent substrate buffer (Attophos substrate buffer, Roche Diagnostics K.K.) was added in an amount of 50 μL/well, and the plate was shaded to allow fluorescence to develop. Fluorescence intensity was measured in CytoFluorII (PerSeptive Biosystems).
binder,measurement,value
B1,binding result,binds
